One block for each molecule: values may come before it.
Assays:
[1] = molecular target: T1, human SIRPA expressed on cells (human, UniProt P78324 31-504); assay: flow cytometry on CHO-HuSIRPα cells
Description: Initial characterization of SIRPA antibodies involved screening their ability to bind the human receptor ectopically expressed on the rodent Chinese hamster ovary cell line, henceforth referred to as CHO-huSIRPA, followed by screening on primary human macrophages. Cells were harvested, plated at 10⁵ cells/well in a 96-well plate, washed, and incubated in 100 μl FACS buffer containing Fc blocking reagent and […] of indicated monoclonal antibody. Cells were then washed twice and incubated in FACS buffer containing APC-conjugated secondary antibody diluted 1:200 for 30 minutes on ice. Cells were washed twice in cold FACS buffer and acquired on a BD FACS Canto. Data analysis and calculation of mean fluorescence intensity (MFI) values or % positive cells was performed with FlowJo (TreeStar) software version 10.0.7.

[2] = molecular target: T2, mouse SIRPA expressed on CHO cells (mouse, UniProt P97797 32-513); assay: flow cytometry on CHO-MuSIRPα cells
T2 construct: also called CHO-mSIRPA; CHO-MuSIRPα
T2 sequence: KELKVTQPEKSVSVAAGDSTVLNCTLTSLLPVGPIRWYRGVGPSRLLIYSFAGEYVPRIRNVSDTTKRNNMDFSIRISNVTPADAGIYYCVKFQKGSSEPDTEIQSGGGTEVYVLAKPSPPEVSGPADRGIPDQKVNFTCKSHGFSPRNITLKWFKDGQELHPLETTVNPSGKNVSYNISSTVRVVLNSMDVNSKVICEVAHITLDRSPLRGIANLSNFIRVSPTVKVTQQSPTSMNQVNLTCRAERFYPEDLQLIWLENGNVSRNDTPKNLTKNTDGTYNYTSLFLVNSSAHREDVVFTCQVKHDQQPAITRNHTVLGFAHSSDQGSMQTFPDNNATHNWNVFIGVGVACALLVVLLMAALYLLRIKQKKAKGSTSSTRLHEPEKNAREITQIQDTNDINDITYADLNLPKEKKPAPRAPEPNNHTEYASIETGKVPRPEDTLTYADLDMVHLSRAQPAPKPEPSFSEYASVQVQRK

[3] = molecular target: T1, human SIRPA expressed on cells; assay: cell-based or functional assay
[4] = molecular target: T2, mouse SIRPA expressed on CHO cells; assay: flow cytometry on CHO-mSIRPA cells
[5] = molecular target: T1, human SIRPA expressed on cells; assay: flow cytometry titration on CHO-huSIRPA cells at 4 C
Description: Serial dilutions of monoclonal antibodies were added to 10⁵ CHO-huSIRPA cells and allowed to achieve binding equilibrium at 4° C. After addition of fluorescently labeled secondary antibody and brief washing steps, MFI values as a function of titrated antibody concentration was recorded via FACS analysis (FIG. 3D). Curves were fit using nonlinear regression analysis with Graphpad Prism 6 software.

[6] = molecular target: T3, recombinant soluble human SIRPA antigen, His-tagged (human, UniProt P78324 31-373); assay: SPR, Biacore T200, antibody captured by anti-mouse IgG on CM5, soluble human SIRPA in solution, 1:1 fit
T3 construct: also called His-tagged soluble HuSIRPA protein; monomeric human SIRPA antigen; not shown: His tag
T3 sequence (P78324 31-373 limits assumed): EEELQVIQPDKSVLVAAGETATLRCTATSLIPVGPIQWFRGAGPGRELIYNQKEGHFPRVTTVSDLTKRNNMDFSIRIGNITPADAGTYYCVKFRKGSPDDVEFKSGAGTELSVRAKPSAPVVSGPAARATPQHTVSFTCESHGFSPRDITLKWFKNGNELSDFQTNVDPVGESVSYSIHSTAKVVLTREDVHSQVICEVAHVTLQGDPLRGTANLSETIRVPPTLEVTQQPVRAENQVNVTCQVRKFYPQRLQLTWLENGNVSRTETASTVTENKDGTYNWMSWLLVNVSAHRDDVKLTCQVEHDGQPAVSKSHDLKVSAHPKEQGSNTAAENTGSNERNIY
Description: Binding studies were performed using a Biacore T200 (GE). An anti-mouse IgG capture antibody was amine coupled to a CM5 sensor chip using standard NHS/EDC activation. SIRPA antibodies were diluted to 50 nM in 1×HBS-EP+ running buffer and captured onto sensor chip surface. Serial dilutions of recombinant soluble human SIRPA antigen were injected over captured SIRPA antibodies to record sensorgram traces. Data were processed by subtracting RU values from the reference cell as well as the buffer injections.

[7] = molecular target: T4, human SIRPA-DAP12 chimera expressed on BWZ/NFAT-luciferase reporter cells (human, UniProt O43914 62-113, limits assumed); assay: flow cytometry on BWZ-Human SIRPA cells, titrated antibody detected with anti-mouse IgG APC (Relative MFI)
T4 construct: domain: intracellular ITAM motif; The intracellular ITIM motif of SIRPA was substituted with the intracellular ITAM motif of DAP12; also called BWZ-huSIRPA; BWZ-HuSIRPA

T1 sequence (P78324 31-504): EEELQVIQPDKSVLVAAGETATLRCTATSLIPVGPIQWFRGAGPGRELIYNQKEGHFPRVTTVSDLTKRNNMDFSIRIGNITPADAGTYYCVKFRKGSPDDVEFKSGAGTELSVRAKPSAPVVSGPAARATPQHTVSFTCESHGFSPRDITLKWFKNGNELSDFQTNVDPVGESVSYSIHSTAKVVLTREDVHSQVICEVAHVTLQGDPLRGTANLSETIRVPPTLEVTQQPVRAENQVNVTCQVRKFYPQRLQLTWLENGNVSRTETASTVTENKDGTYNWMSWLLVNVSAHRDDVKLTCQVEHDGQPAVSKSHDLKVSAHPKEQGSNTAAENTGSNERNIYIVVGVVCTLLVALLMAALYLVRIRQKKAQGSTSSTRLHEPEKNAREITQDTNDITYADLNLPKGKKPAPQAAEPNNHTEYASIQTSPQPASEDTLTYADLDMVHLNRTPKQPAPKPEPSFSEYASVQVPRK

B1: 9C2 (antibody, IgG1, V domains shown)
VH: EFQLQQSGAELVKPGASVKISCKASGYSLTGYNMNWVKQSRGKSLEWIGNINPHYGSSTYNQNFKDKATLTVDKSSSAAYMQFNSLTSEDSAVYYCAREGYDGVFDYWGQGTTLTVSS
VL: QIVLSQSPAILSASPGEKVTMTCRASSSVSYMHWYQQKPGSSPKPWIYVTSNLASGVPTRFSGSGSGTSYSLTISRVEAEDAATYYCQQWSSNPRTFGGGTKLEIK
notes: also called anti-SIRPA antibody 9C2; 9C2-DyLight 650
phagocytosis of labeled Raji cells: CD14+/pHrodo+ macrophages over isotype-treated macrophages [3]: 1.5 fold
binding result [4]: no binding (tested: 1.0 pg/ml (so in the source))
MFI, fold over background [1]: 128 fold over background
MFI, fold over background [2]: 0.981 fold over background
EC50 [5]: 1.6 nM
Kd [6]: 80 nM
koff [6]: 0.0045 s⁻¹
kon [6]: 54000 M⁻¹ s⁻¹

B2: 3F9 (antibody, IgG1, V domains shown)
VH: EVKLVESGGGLVKPGGSLKLSCAASGFTFSSYAMSWVRQTPEKRLEWVATISDYGGSYTYYPDSVKGRFTISRDNAKYTLYLQMSSLRSEDTALYYCARPPYDDYYGGFAYWGQGTLVTVSA
VL: DIVLTQSPASLAVSLGQRATISCRASKSVSSSGYSYMHWYQQKPGQPPKLLIYLASNLESGVPARFSGSGSGTDFTLNIHPVEEEDAATYYCQHNRELPCTFGGGTKLEIK
notes: also called anti-SIRPA antibody 3F9; glycosylated 3F9
phagocytic activity of treated macrophages (FIG. 8C) [3]: 2 fold
phagocytosis of labeled Raji cells: CD14+/pHrodo+ macrophages over isotype-treated macrophages [3]: 2.5 fold
binding result [4]: no binding (tested: 1.0 pg/ml (so in the source))
MFI, fold over background [1]: 137 fold over background
MFI, fold over background [2]: 0.998 fold over background
EC50 [5]: 2.6 nM
Kd [6]: 10 nM
koff [6]: 0.00057 s⁻¹
kon [6]: 55000 M⁻¹ s⁻¹
EC50 (read off the curve) [7]: ~1 nM

Other lines, results leading:

MFI, fold over background (fold over background) [1]: 1
MFI, fold over background (fold over background) [2]: 1
Molecule: mouse IgG1 isotype control (antibody)

EC50 (read off the curve) [7]: ~1 nM
B3: deglycosylated 3F9 (antibody, IgG1, V domains shown)
VH: B2 VH
VL: B2 VL
modifications: Fc-linked glycan removed with EndoS (on the heavy chain constant region, which is not given)
notes: also called deglycosylated 3F9 variant; deglycosylated form of 3F9
